Measured values taken from patent US20220177587A1, “METHODS AND USES OF VARIANT CD80 FUSION PROTEINS AND RELATED CONSTRUCTS” (Alpine Immune Sciences, Inc., priority 2018, published 2022).

How the values were obtained:
[1] = target: huCTLA4 (Homo sapiens, UniProt P16410); experiment: Flow binding to CHO cells stably expressing CTLA4; set-up: huCTLA4 and huPD-L1, full-length mammalian surface expression constructs were generated; expressed in transfected cells; host or cells: CHO cells, lentiviral transduction, sorted to >98% purity; conditions: for CTLA4 MFI at 33.3 nM: CHO cells stably expressing CTLA4
Protocol: (§1) Binding of selected immunomodulatory fusion proteins to cognate binding partners was assessed. […] Cells were sorted in a Bio-Rad S3 Cell Sorter (Bio-Rad Corp., USA) to >98% purity. Jurkat/IL2 reporter cells, which endogenously express CD28, were used to detect binding to CD28.
(§2) For staining and analysis by flow cytometry, 100,000 cells of appropriate transfected cells were plated in 96-well round bottom plates. Cells were spun down and resuspended in staining buffer (phosphate buffered saline (PBS), 1% bovine serum albumin (BSA), and 0.1% sodium azide) for 20 minutes to block non-specific binding. […] Primary staining was performed on ice for 45 minutes, before washing cells in staining buffer twice. Phycoerythrin (PE)-conjugated anti-human Fc (Jackson ImmunoResearch, USA) was diluted 1:150, added to cells and incubated another 30 minutes on ice. Cells were then washed twice with 150 μL/well stain buffer, fixed in 2% formaldehyde/PBS, and analyzed on Intellicyt flow cytometer (Intellicyt Corp., USA). PE Mean Fluorescence Intensity (MFI) was calculated for each cell type with FlowJo Version 10 software (FlowJo LLC, USA).
(§3) Binding assays were carried out to assess the specificity and affinity of multivalent proteins to cell-expressed CTLA-4, CD28, and PD-L1 counter structures.
(§4) The EC50 for binding also was determined.

[2] = target: T1, CD28 (Homo sapiens, UniProt P10747); experiment: Jurkat/IL2 + CHO/OKT3 +/- PD-L1 reporter assay: PD-L1-dependent CD28 costimulation; format: cell-based; set-up: host or cells: Jurkat cells expressing an IL-2-luciferase reporter; conditions: Jurkat/IL2 + CHO/OKT3/PD-L1
Protocol: Jurkat cells were then plated at 50 μL/well for a total of 100,000 cells per well.
To each well, 25 μL of test protein was added to the Jurkat cells. […] The Jurkat cells with test or control proteins were incubated for 15 minutes at room temperature. CHO-derived artificial antigen presenting cells (aAPC) displaying transduced cell surface anti-CD3 single chain Fv (OKT3) (i.e., no PD-L1), or OKT3 and PD-L1 (i.e., +PD-L1), were brought to 0.8×10^6 cells/mL, and 25 μL of cells were added to each well, bringing the final volume of each well to 100 μL. […] Jurkat cells and CHO cells were incubated for 5 hours at 37 degrees Celsius in a humidified 5% CO2 incubation chamber. Plates were then removed from the incubator and acclimated to room temperature for 15 minutes. 100 μL of a cell lysis and luciferase substrate solution (BioGlo luciferase reagent, Promega) were added to each well and the plates were incubated on an orbital shaker for 10 minutes. Luminescence was measured with a 1 second per well integration time using a BioTek Cytation luminometer, and a relative luminescence value (RLU) was determined for each test sample.

[3] = target: huPD-L1 (Homo sapiens, UniProt Q9NZQ7); experiment: Flow binding to CHO cells stably expressing PD-L1; set-up: huCTLA4 and huPD-L1, full-length mammalian surface expression constructs were generated; expressed in transfected cells; host or cells: CHO cells, lentiviral transduction, sorted to >98% purity; conditions: for PD-L1 MFI at 33.3 nM: CHO cells stably expressing PD-L1
Protocol: as §1, §2, §3, §4

[4] = target: T1, CD28; experiment: Flow binding to Jurkat/IL2 reporter cells (CD28); set-up: host or cells: Jurkat cells expressing an IL-2-luciferase reporter
Protocol: as §1, §2, §3, §4

[5] = Table E20, Jurkats (CD28), 33.3 nM
[6] = Table E23, MFI at 33.3 nM relative to CD80 WT IgV-Fc
[7] = Table E23, CD80 IgV-Fc (inert) at 33.3 nM
[8] = Table E25, linker variants, 33.3 nM

huCTLA4, sequence (P16410 36-223): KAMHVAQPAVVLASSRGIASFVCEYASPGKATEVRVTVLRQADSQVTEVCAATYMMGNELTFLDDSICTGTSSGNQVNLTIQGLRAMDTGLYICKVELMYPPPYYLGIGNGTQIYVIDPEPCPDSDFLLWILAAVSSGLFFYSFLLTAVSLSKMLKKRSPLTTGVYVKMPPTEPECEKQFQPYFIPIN
huPD-L1, sequence (Q9NZQ7 19-290): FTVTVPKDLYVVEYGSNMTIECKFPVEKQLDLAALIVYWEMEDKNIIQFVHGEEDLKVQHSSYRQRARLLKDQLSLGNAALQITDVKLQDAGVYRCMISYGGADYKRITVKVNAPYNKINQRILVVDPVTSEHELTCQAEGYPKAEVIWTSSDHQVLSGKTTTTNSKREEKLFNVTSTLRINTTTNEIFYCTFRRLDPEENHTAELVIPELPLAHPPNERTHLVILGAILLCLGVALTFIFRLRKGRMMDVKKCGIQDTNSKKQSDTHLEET

Substance	CTLA4 MFI at 33.3 nM ([1]; Table E20, 33.3 nM)	Relative Luciferase Units (RLU), CD80 Conc 5.0 nM ([2]; Table E22, CD80 Conc 5.0 nM) [RLU]	PD-L1 MFI at 33.3 nM ([3]; Table E20, 33.3 nM)	other results
H18Y/E35D/M47L/V68M/A71G/D90G	19892	1028	29944	–
H18Y/A26E/M47L/A71G/D90G	25420	1036	–	CD28 MFI at 33.3 nM [4, 5]: 2047
H18Y/A26E/E35D/M47L/A71G/D90G	–	1015	–	–
H18Y/A26Q/E35D/M47T/V68M/A71G/D90G	–	–	–	CD28 MFI at 33.3 nM ([4]; Table E23, CD80 IgV-Fc (inert) at 33.3 nM, Jurkat (CD28)): 6733; CD28 Fold change to WT CD80 [4, 6]: 66.0; CTLA4 MFI at 33.3 nM [1, 7]: 16652; CTLA4 Fold change to WT CD80 [1, 6]: 12.0; Fold Increase over WT CD80-IgV-Fe ([2]; Table E24, 5.0 nM): 5.8; Relative Luciferase Units (RLU), CD80 Conc 5.0 nM ([2]; Table E24, 5.0 nM): 994 RLU; PD-L1 MFI at 33.3 nM [3, 7]: 24450; PD-L1 Fold change to WT CD80 [3, 6]: 148.2; Ratio of PDL1:CD28 ([3]; Table E23, ratio of MFI at 33.3 nM): 3.6
A26E/E35D/M47L/V68M/D90G	26698	–	–	–
H18Y/A26E/E35D/M47L/V68M/A71G	25404	976	28546	–
H18Y/E35D/V68M/A71G/D90G	24335	815	–	CD28 MFI at 33.3 nM [4, 5]: 2724
CD80 (E88D/K89R/D90K/A91G/F92Y/K93R) ECD-Fc: variant full CD80 ECD fused to effector human IgG1 Fc (SEQ ID NO:1527)	–	–	–	Jurkat/CD28 MFI at 66.7 nM ([4]; 66.7 nM): 4049; EC50 ([4]; flow binding, read-out: Jurkat/CD28 EC50): > 0.2 µM
WT CD80 ECD-Fc H22.6	–	–	–	CD28 MFI at 33.3 nM ([4]; Table E10, 33.3 nM, Jurkats (CD28)): 43; PD-L1 MFI at 33.3 nM ([3]; Table E10, 33.3 nM): 46.3
A26E/E35D/M47L/A71G/D90G	22127	1132	14550	–
A26E/M47L/V68M/A71G/D90G	21807	–	28139	–
Inert Fc (control)	–	–	–	CD28 MFI at 33.3 nM ([4]; Table E25, linker variants, 33.3 nM, Jurkats (CD28)): 20; CTLA4 MFI at 33.3 nM [1, 8]: 40; PD-L1 MFI at 33.3 nM [3, 8]: 58
H18Y/M47L/V68M/A71G/D90G	22235	986	–	–
